Measured values published in the supplement of paper PMC9112550, “Optimization of the antimicrobial peptide Bac7 by deep mutational scanning” (BMC Biology, 2022).

Test system: Escherichia coli TOP10
Test: shrunken log2 fold change of peptide-encoding DNA abundance (4.5 h post-induction vs induction); higher = less antimicrobial activity (less host growth inhibition)
Conditions: time post-induction: 4.5 h; library: site-saturation at positions 5, 18, 19, 20
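Note: peptides expressed intracellularly from a pBAD plasmid library in pooled LB shake-flask culture, induced with 0.3% L-arabinose, DNA abundance read by NGS, three biological replicates, DESeq2 with apeglm shrinkage.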

| Sequence | shrunken log2 fold change |
| --- | --- |
| RRIRFRPPRLPRPRPRPRALPRP | 0.148 |
| RRIRFRPPRLPRPRPRPRCFPRP | -0.183 |
| RRIRFRPPRLPRPRPRPRCWPRP | 0.309 |
| RRIRFRPPRLPRPRPRPRDDPRP | 0.133 |
| RRIRFRPPRLPRPRPRPRDLPRP | -0.00831 |
| RRIRFRPPRLPRPRPRPRDMPRP | -0.128 |
| RRIRFRPPRLPRPRPRPRDPPRP | 0.553 |
| RRIRFRPPRLPRPRPRPREHPRP | 0.0409 |
| RRIRFRPPRLPRPRPRPREIPRP | 0.0702 |
| RRIRFRPPRLPRPRPRPRFDPRP | -0.248 |
| RRIRFRPPRLPRPRPRPRFWPRP | 0.317 |
| RRIRFRPPRLPRPRPRPRGCPRP | 0.433 |
| RRIRFRPPRLPRPRPRPRGYPRP | -0.25 |
| RRIRFRPPRLPRPRPRPRHWPRP | 0.437 |
| RRIRFRPPRLPRPRPRPRLYPRP | -0.014 |
| RRIRFRPPRLPRPRPRPRMCPRP | 0.0779 |
| RRIRFRPPRLPRPRPRPRNEPRP | -0.0379 |
| RRIRFRPPRLPRPRPRPRNKPRP | -0.174 |
| RRIRFRPPRLPRPRPRPRNMPRP | -0.127 |
| RRIRFRPPRLPRPRPRPRPAPRP | 0.807 |
| RRIRFRPPRLPRPRPRPRPLPRP | 0.406 |
| RRIRFRPPRLPRPRPRPRQEPRP | 0.0178 |
| RRIRFRPPRLPRPRPRPRRYPRP | -0.0281 |
| RRIRFRPPRLPRPRPRPRSLPRP | 0.0152 |
| RRIRFRPPRLPRPRPRPRTWPRP | 0.544 |

| Sequence | shrunken log2 fold change |
| --- | --- |
| RRIRFRPPRLPRPRPRPRVHPRP | -0.0984 |
| RRIRFRPPRLPRPRPRPRVWPRP | 0.963 |
| RRIRFRPPRLPRPRPRPRWEPRP | 0.025 |
| RRIRFRPPRLPRPRPRPRWIPRP | 0.0967 |
| RRIRFRPPRLPRPRPRPRYNPRP | -0.323 |
| RRIRFRPPRLPRPRPRPSCYPRP | -0.839 |
| RRIRFRPPRLPRPRPRPSDCPRP | -0.476 |
| RRIRFRPPRLPRPRPRPSDDPRP | -0.106 |
| RRIRFRPPRLPRPRPRPSDNPRP | -0.527 |
| RRIRFRPPRLPRPRPRPSEPPRP | -0.0424 |
| RRIRFRPPRLPRPRPRPSFCPRP | -0.373 |
| RRIRFRPPRLPRPRPRPSGCPRP | -0.0116 |
| RRIRFRPPRLPRPRPRPSHAPRP | -0.149 |
| RRIRFRPPRLPRPRPRPSIWPRP | -0.111 |
| RRIRFRPPRLPRPRPRPSKAPRP | -0.367 |
| RRIRFRPPRLPRPRPRPSLNPRP | -0.642 |
| RRIRFRPPRLPRPRPRPSLRPRP | -0.262 |
| RRIRFRPPRLPRPRPRPSNGPRP | -0.238 |
| RRIRFRPPRLPRPRPRPSNRPRP | -0.381 |
| RRIRFRPPRLPRPRPRPSPPPRP | 0.218 |
| RRIRFRPPRLPRPRPRPSPYPRP | -0.481 |
| RRIRFRPPRLPRPRPRPSQFPRP | -0.44 |
| RRIRFRPPRLPRPRPRPSQMPRP | -0.208 |
| RRIRFRPPRLPRPRPRPSRLPRP | 0.014 |
| RRIRFRPPRLPRPRPRPSSCPRP | -0.183 |

| Sequence | shrunken log2 fold change |
| --- | --- |
| RRIRFRPPRLPRPRPRPSSIPRP | -0.945 |
| RRIRFRPPRLPRPRPRPSSQPRP | -0.458 |
| RRIRFRPPRLPRPRPRPSSSPRP | -0.625 |
| RRIRFRPPRLPRPRPRPSTEPRP | -0.112 |
| RRIRFRPPRLPRPRPRPSTNPRP | -0.147 |
| RRIRFRPPRLPRPRPRPSVMPRP | -0.537 |
| RRIRFRPPRLPRPRPRPSVNPRP | -0.388 |
| RRIRFRPPRLPRPRPRPSWLPRP | 0.156 |
| RRIRFRPPRLPRPRPRPSWVPRP | -0.393 |
| RRIRFRPPRLPRPRPRPSYAPRP | -0.116 |
| RRIRFRPPRLPRPRPRPTALPRP | 0.0145 |
| RRIRFRPPRLPRPRPRPTAPPRP | 0.602 |
| RRIRFRPPRLPRPRPRPTAWPRP | 0.618 |
| RRIRFRPPRLPRPRPRPTCHPRP | -0.231 |
| RRIRFRPPRLPRPRPRPTCKPRP | -0.295 |
| RRIRFRPPRLPRPRPRPTDIPRP | 0.0284 |
| RRIRFRPPRLPRPRPRPTDVPRP | 0.0385 |
| RRIRFRPPRLPRPRPRPTEDPRP | 0.0193 |
| RRIRFRPPRLPRPRPRPTEQPRP | -0.0361 |
| RRIRFRPPRLPRPRPRPTFCPRP | -0.152 |
| RRIRFRPPRLPRPRPRPTHAPRP | 0.207 |
| RRIRFRPPRLPRPRPRPTICPRP | -0.288 |
| RRIRFRPPRLPRPRPRPTKMPRP | 0.0196 |
| RRIRFRPPRLPRPRPRPTKWPRP | 0.333 |
| RRIRFRPPRLPRPRPRPTLFPRP | 0.243 |

| Sequence | shrunken log2 fold change |
| --- | --- |
| RRIRFRPPRLPRPRPRPTLIPRP | -0.19 |
| RRIRFRPPRLPRPRPRPTLYPRP | -0.189 |
| RRIRFRPPRLPRPRPRPTMFPRP | -0.322 |
| RRIRFRPPRLPRPRPRPTMGPRP | 0.0497 |
| RRIRFRPPRLPRPRPRPTMPPRP | 0.0787 |
| RRIRFRPPRLPRPRPRPTMWPRP | 0.0084 |
| RRIRFRPPRLPRPRPRPTNVPRP | -0.254 |
| RRIRFRPPRLPRPRPRPTPEPRP | 0.189 |
| RRIRFRPPRLPRPRPRPTQTPRP | -0.199 |
| RRIRFRPPRLPRPRPRPTRTPRP | 0.326 |
| RRIRFRPPRLPRPRPRPTSEPRP | 0.0114 |
| RRIRFRPPRLPRPRPRPTSGPRP | 0.219 |
| RRIRFRPPRLPRPRPRPTSLPRP | -1.17 |
| RRIRFRPPRLPRPRPRPTTNPRP | -0.2 |
| RRIRFRPPRLPRPRPRPTTVPRP | -0.132 |
| RRIRFRPPRLPRPRPRPTVFPRP | -0.0947 |
| RRIRFRPPRLPRPRPRPTVMPRP | -0.0812 |
| RRIRFRPPRLPRPRPRPTVRPRP | 0.0843 |
| RRIRFRPPRLPRPRPRPTWNPRP | -0.166 |
| RRIRFRPPRLPRPRPRPVAHPRP | -0.113 |
| RRIRFRPPRLPRPRPRPVAYPRP | -0.19 |
| RRIRFRPPRLPRPRPRPVDHPRP | -0.179 |
| RRIRFRPPRLPRPRPRPVDKPRP | -0.022 |
| RRIRFRPPRLPRPRPRPVFFPRP | 0.00921 |
| RRIRFRPPRLPRPRPRPVGYPRP | -0.129 |

| Sequence | shrunken log2 fold change |
| --- | --- |
| RRIRFRPPRLPRPRPRPVHCPRP | -0.0193 |
| RRIRFRPPRLPRPRPRPVHNPRP | -0.104 |
| RRIRFRPPRLPRPRPRPVIEPRP | -0.161 |
| RRIRFRPPRLPRPRPRPVIPPRP | -0.102 |
| RRIRFRPPRLPRPRPRPVIVPRP | -0.997 |
| RRIRFRPPRLPRPRPRPVKDPRP | -0.254 |
| RRIRFRPPRLPRPRPRPVKSPRP | -0.159 |
| RRIRFRPPRLPRPRPRPVKWPRP | 0.0401 |
| RRIRFRPPRLPRPRPRPVMPPRP | -0.12 |
| RRIRFRPPRLPRPRPRPVMRPRP | 0.518 |
| RRIRFRPPRLPRPRPRPVPEPRP | 0.098 |
| RRIRFRPPRLPRPRPRPVQIPRP | -0.0152 |
| RRIRFRPPRLPRPRPRPVQKPRP | 0.00252 |
| RRIRFRPPRLPRPRPRPVQQPRP | 0.355 |
| RRIRFRPPRLPRPRPRPVSNPRP | -0.0552 |
| RRIRFRPPRLPRPRPRPVSVPRP | -0.341 |
| RRIRFRPPRLPRPRPRPVSYPRP | 0.0168 |
| RRIRFRPPRLPRPRPRPVTHPRP | -0.303 |
| RRIRFRPPRLPRPRPRPVVWPRP | 0.408 |
| RRIRFRPPRLPRPRPRPVWMPRP | -0.119 |
| RRIRFRPPRLPRPRPRPVYIPRP | -1.22 |
| RRIRFRPPRLPRPRPRPVYKPRP | -0.295 |
| RRIRFRPPRLPRPRPRPWAHPRP | 0.195 |
| RRIRFRPPRLPRPRPRPWASPRP | -0.0247 |
| RRIRFRPPRLPRPRPRPWCAPRP | 0.185 |

| Sequence | shrunken log2 fold change |
| --- | --- |
| RRIRFRPPRLPRPRPRPWCCPRP | -0.654 |
| RRIRFRPPRLPRPRPRPWCRPRP | -0.172 |
| RRIRFRPPRLPRPRPRPWCTPRP | -0.288 |
| RRIRFRPPRLPRPRPRPWEDPRP | 0.0682 |
| RRIRFRPPRLPRPRPRPWEKPRP | -0.0348 |
| RRIRFRPPRLPRPRPRPWHTPRP | -0.0673 |
| RRIRFRPPRLPRPRPRPWKVPRP | -0.00133 |
| RRIRFRPPRLPRPRPRPWMMPRP | -0.897 |
| RRIRFRPPRLPRPRPRPWMYPRP | -0.673 |
| RRIRFRPPRLPRPRPRPWQRPRP | -0.0586 |
| RRIRFRPPRLPRPRPRPWSCPRP | -0.175 |
| RRIRFRPPRLPRPRPRPWSIPRP | -0.0103 |
| RRIRFRPPRLPRPRPRPWTHPRP | -0.0346 |
| RRIRFRPPRLPRPRPRPWTMPRP | 0.0794 |
| RRIRFRPPRLPRPRPRPWVEPRP | -0.0273 |
| RRIRFRPPRLPRPRPRPWVNPRP | -0.753 |
| RRIRFRPPRLPRPRPRPWVSPRP | -0.272 |
| RRIRFRPPRLPRPRPRPWWCPRP | -0.0371 |
| RRIRFRPPRLPRPRPRPWWVPRP | 0.00262 |
| RRIRFRPPRLPRPRPRPWYPPRP | -0.321 |
| RRIRFRPPRLPRPRPRPYEDPRP | -0.951 |
| RRIRFRPPRLPRPRPRPYEHPRP | -0.0962 |
| RRIRFRPPRLPRPRPRPYETPRP | -0.185 |
| RRIRFRPPRLPRPRPRPYEVPRP | -0.12 |
| RRIRFRPPRLPRPRPRPYFDPRP | -0.489 |
